Data reported in patent US11702666B2, “Cell-based assay for determining activity in the retinoblastoma pathway” (Medical Diagnostic Laboratories, LLC, priority 2017, dated 2023).
Numbering of substitutions follows the chain as printed. Numbers in names are those of the source. Entries after “also recorded” stand apart in the source; their conditions may differ. Values belong to the molecule of their own block, whether it stands above or below them.

Tested on: E2F1/Dp-1 heterodimer
Experiment: Rb activity assay (LB-Rb with E2F1-SB, DP1 split luciferase)
Format: cell-based, human
Design: key to Observed activity: N—no activity; A—active as WT; R—reduced activity compared to the WT
Conditions: for Observed activity / % (/wt): Rb mutants; for % (/wt): activity relative to WT
Source text: An assay that could measure the interaction between Rb, E2F1, and Dp-1 was developed. Since Dp-1 forms a heterodimer with E2F1 and that interaction is crucial for Rb/E2F1 binding, the assay was comprised of three components. When two proteins (Rb and E2F1) are in close proximity or in complex, a light signal was observed. For the purposes of the current assay, split-luciferase complementation was used to measure the interaction between Rb and E2F1. The NanoBiT assay system by Promega (Madison, Wis.; Dixon et al., 2015, ACS ChemBiol) was used in our split luciferase complementation design.
FIG. 16 depicts the design of a signal system to measure Rb activity. Under basal conditions inside the cell, Rb was active and interacted with the E2F1/Dp-1 heterodimer. For this assay design, cDNAs of Rb linked to different parts of the luciferase protein, either termed as the “Small BiT” (SB), or “Large BiT” (LB) and E2F1 linked to the opposite portion of the luciferase protein were created. When Rb and E2F1/Dp-1 bind, the NanoBiT parts of the luciferase form a complex and emitted a light signal when the luciferase (NanoGlo) substrate was added.
Using the described assay design, HEK293 CDK DKO cells were transiently transfected with different combinations of SB-Rb or LB-Rb and E2F1-LB or E2F1-SB components containing C-terminal and N-terminal constructs (FIG. 17). Relative intensities generated are presented in FIG. 17 as relative luminescence units (RLU). The data represents a sample experiment where each condition was performed in triplicate and represent mean+SD.
The LB-Rb and E2F1-SB with Dp-1 were tested for Rb activity using known Rb null mutants: R661W and C706F (FIG. 18A). […] Rb in-frame (del35) and out-of frame (del1) deletion mutants (FIG. 18B) were constructed and the observed luciferase activity was close to 0, in particular for del1 mutant, because Rb-E2F1 binding was destroyed.
Within the provided assay design, stable cell lines using the HEK293 CDK DKO cell parent line expressing E2F1-SB and Dp-1 were produced. After selection and screening for positive clones using an LB-Rb-mediated increase in signal, four stable single cell clones were selected and evaluated using different Rb mutants (FIGS. 19A and 19B). The response to E2F1 interaction was also checked by using the plasmid and linear form of DNA. Cell line #37 was selected for all our experiments in assay development due to its favorable response.
The conditions of the assay were further optimized by analyzing different cell numbers and Rb concentrations (FIG. 20). Based on the data, it was decided to use 0.2×10^6 cells/ml and 70 ng of DNA in the assay.
Known null and out/in-frame deletion mutants disrupting E2F1 binding and unknown COSMIC mutants were created to examine the ability of the assay to detect variants in Rb that affect function. We transfected WT or mutated Rb using similar conditions as previously indicated (FIG. 20). […] In addition, the null C706F and deletion (del1) mutants presented a signal close to zero as expected for loss of function mutants that disrupt E2F1 interaction. […] This confirmed that the assay was capable of determining the relative activity level of Rb mutants. The data is provided in Luminescence (RLU) of a single experiment with each condition performed in triplicate and represent average+SD.

Chain of E2F1/Dp-1 heterodimer (Q01094 58-437 limits assumed): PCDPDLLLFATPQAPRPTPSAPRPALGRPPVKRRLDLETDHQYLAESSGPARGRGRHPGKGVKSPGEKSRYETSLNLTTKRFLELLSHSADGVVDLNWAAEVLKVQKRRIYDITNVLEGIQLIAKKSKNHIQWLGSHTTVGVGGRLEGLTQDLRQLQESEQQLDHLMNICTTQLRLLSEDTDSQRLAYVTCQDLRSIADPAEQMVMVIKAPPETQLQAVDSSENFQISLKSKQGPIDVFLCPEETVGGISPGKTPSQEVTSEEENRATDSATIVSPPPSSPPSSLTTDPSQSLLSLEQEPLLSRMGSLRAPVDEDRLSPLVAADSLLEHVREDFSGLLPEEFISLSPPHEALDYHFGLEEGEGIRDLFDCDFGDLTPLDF
Chain of E2F1/Dp-1 heterodimer (Q14186 whole entry, further chain): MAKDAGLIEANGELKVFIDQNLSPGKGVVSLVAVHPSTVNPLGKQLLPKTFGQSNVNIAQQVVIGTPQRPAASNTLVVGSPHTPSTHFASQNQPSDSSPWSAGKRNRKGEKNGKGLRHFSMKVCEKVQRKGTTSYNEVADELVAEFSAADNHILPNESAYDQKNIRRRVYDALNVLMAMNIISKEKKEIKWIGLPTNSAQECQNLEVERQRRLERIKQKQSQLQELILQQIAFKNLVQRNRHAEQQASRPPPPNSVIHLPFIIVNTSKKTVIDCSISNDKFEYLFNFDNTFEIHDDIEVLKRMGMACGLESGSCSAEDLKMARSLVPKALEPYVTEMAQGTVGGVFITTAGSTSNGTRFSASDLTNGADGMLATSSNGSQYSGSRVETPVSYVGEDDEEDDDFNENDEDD

B3: Rb I724N: Rb mutant from COSMIC database (protein, UniProt P06400 2-928, looked up, variant I724N)
Retinoblastoma-associated …: PPKTPRKTAATAAAAAAEPPAPPPPPPPEEDPEQDSGPEDLPLVRLEFEETEEPDFTALCQKLKIPDHVRERAWLTWEKVSSVDGVLGGYIQKKKELWGICIFIAAVDLDEMSFTFTELQKNIEISVHKFFNLLKEIDTSTKVDNAMSRLLKKYDVLFALFSKLERTCELIYLTQPSSSISTEINSALVLKVSWITFLLAKGEVLQMEDDLVISFQLMLCVLDYFIKLSPPMLLKEPYKTAVIPINGSPRTPRRGQNRSARIAKQLENDTRIIEVLCKEHECNIDEVKNVYFKNFIPFMNSLGLVTSNGLPEVENLSKRYEEIYLKNKDLDARLFLDHDKTLQTDSIDSFETQRTPRKSNLDEEVNVIPPHTPVRTVMNTIQQLMMILNSASDQPSENLISYFNNCTVNPKESILKRVKDIGYIFKEKFAKAVGQGCVEIGSQRYKLGVRLYYRVMESMLKSEEERLSIQNFSKLLNDNIFHMSLLACALEVVMATYSRSTSQNLDSGTDLSFPWILNVLNLKAFDFYKVIESFIKAEGNLTREMIKHLERCEHRIMESLAWLSDSPLFDLIKQSKDREGPTDHLESACPLNLPLQNNHTAADMYLSPVRSPKKKGSTTRVNSTANAETQATSAFQTQKPLKSTSLSLFYKKVYRLAYLRLNTLCERLLSEHPELEHIIWTLFQHTLQNEYELMRDRHLDQIMMCSMYGICKVKNIDLKFKINVTAYKDLPHAVQETFKRVLIKEEEYDSIIVFYNSVFMQRLKTNILQYASTRPPTLSPIPHIPRSPYKFPSSPLRIPGGNIYISPLKSPYKISEGLPTPTKMTPRSRILVSIGESFGTSEKFQKINQMVCNSDRVLKRSAEGSNPPKPLKKLRFDIEGSDEADGSKHLPGESKFQQKLAEMTSTRTRMQKQKMNDSMDTSNKEEK
- Observed activity: N
- % (/wt): 7.4%

B4: Rb R698W: Rb mutant from COSMIC database (protein, UniProt P06400 2-928, looked up, variant R698W)
Retinoblastoma-associated …: B3 Retinoblastoma-associated … with R697W, N723I
- Observed activity: N
- % (/wt): 6.4%

B5: Rb R798Q: Rb mutant from COSMIC database (protein, UniProt P06400 2-928, looked up, variant R798Q)
Retinoblastoma-associated …: B3 Retinoblastoma-associated … with N723I, R797Q
- Observed activity: A
- % (/wt): 92%

B7: Rb R656W: Rb mutant from COSMIC database (protein, UniProt P06400 2-928, looked up, variant R656W)
Retinoblastoma-associated …: B3 Retinoblastoma-associated … with R655W, N723I
- Observed activity: A
- % (/wt): 79%

B8: Rb R621S: Rb mutant from COSMIC database (protein, UniProt P06400 2-928, looked up, variant R621S)
Retinoblastoma-associated …: B3 Retinoblastoma-associated … with R620S, N723I
- Observed activity: A
- % (/wt): 124%

B9: Rb V654M: Rb mutant from COSMIC database (protein, UniProt P06400 2-928, looked up, variant V654M)
Retinoblastoma-associated …: B3 Retinoblastoma-associated … with V653M, N723I
- Observed activity: A
- % (/wt): 132%

B10: Rb R798W: Rb mutant from COSMIC database (protein, UniProt P06400 2-928, looked up, variant R798W)
Retinoblastoma-associated …: B3 Retinoblastoma-associated … with N723I, R797W
- Observed activity: A
- % (/wt): 120%

B11: Rb E440K: Rb mutant from COSMIC database (protein, UniProt P06400 2-928, looked up, variant E440K)
Retinoblastoma-associated …: B3 Retinoblastoma-associated … with E439K, N723I
- Observed activity: R
- % (/wt): 47%

The next lines start with results.

- Observed activity: N
- % (/wt): 5.5%
B1: Rb C706F: known Rb null mutant (protein, UniProt P06400 2-928, looked up, variant C706F)
Retinoblastoma-associated …: B3 Retinoblastoma-associated … with C705F, N723I
- luciferase activity / E2F1 interaction of Rb mutant (LB-Rb and E2F1-SB with Dp-1): completely disrupted the E2F1 interaction; also recorded: close to zero

- Observed activity: N
- % (/wt): 5%
B2: Rb L665R: Rb mutant from COSMIC database (protein, UniProt P06400 2-928, looked up, variant L665R)
Retinoblastoma-associated …: B3 Retinoblastoma-associated … with L664R, N723I

- Observed activity: R
- % (/wt): 51%
B6: Rb A488V: Rb mutant from COSMIC database (protein, UniProt P06400 2-928, looked up, variant A488V)
Retinoblastoma-associated …: B3 Retinoblastoma-associated … with A487V, N723I

- Observed activity: R
- % (/wt): 32%
B12: Rb I680T: Rb mutant from COSMIC database (protein)
chain: MVFTLEDFVGDWEQTAAYNLDQVLEQGGVSSLLQNLAVSVTPIQRIVRSGENALKIDIHVIIPYEGLSADQMAQIEEVFKVVYPVDDHHFKVILPYGTLVIDGVTPNMLNYFGRPYEGIAVFDGKKITVTGTLWNGNKIIDERLITPDGSMLFRVTINSGSSGGGGSGGGGSSGGAQGNSNTIQQLMMILNSASDQPSENLISYFNNCTVNPKESILKRVKDIGYIFKEKFAKAVGQGCVEIGSQRYKLGVRLYYRVMESMLKSEEERLSIQNFSKLLNDNIFHMSLLACALEVVMATYSRSTSQNLDSGTDLSFPWILNVLNLKAFDFYKVIESFIKAEGNLTREMIKHLERCEHRIMESLAWLSDSPLFDLIKQSKDREGPTDHLESACPLNLPLQNNHTAADMYLSPVRSPKKKGSTTRVNSTANAETQATSAFQTQKPLKSTSLSLFYKKVYRLAYLRLNTLCERLLSEHPELEHITWTLFQHTLQNEYELMRDRHLDQIMMCSMYGICKVKNIDLKFKIIVTAYKDLPHAVQETFKRVLIKEEEYDSIIVFYNSVFMQRLKTNILQYASTRPPTLSPIPHIPRSPYKFPSSPLRIPGGNIYISPLKSPYKISEGLPTPTKMTPRSRILVSIGESFGTSEKFQKINQMVCNSDRVLKRSAEGSNPPKPLKKLRFDIEGSDEADGSKHLPGESKFQQKLAEMTSTRTRMQKQKMNDSMDTSNKEEK
